Source: patent US20170166644A1 (SORRENTO THERAPEUTICS, published 2017)
Residue numbers refer to the chain shown, from its start. Each block holds one binder with its values, some of them ahead of it.

How the values were obtained:
VEGFR2 [1] = molecular target: T1, VEGFR2; experiment: EC50 measurement, summary table; assay not stated
T1 construct: also called KDR
T1 sequence (P35968 20-764): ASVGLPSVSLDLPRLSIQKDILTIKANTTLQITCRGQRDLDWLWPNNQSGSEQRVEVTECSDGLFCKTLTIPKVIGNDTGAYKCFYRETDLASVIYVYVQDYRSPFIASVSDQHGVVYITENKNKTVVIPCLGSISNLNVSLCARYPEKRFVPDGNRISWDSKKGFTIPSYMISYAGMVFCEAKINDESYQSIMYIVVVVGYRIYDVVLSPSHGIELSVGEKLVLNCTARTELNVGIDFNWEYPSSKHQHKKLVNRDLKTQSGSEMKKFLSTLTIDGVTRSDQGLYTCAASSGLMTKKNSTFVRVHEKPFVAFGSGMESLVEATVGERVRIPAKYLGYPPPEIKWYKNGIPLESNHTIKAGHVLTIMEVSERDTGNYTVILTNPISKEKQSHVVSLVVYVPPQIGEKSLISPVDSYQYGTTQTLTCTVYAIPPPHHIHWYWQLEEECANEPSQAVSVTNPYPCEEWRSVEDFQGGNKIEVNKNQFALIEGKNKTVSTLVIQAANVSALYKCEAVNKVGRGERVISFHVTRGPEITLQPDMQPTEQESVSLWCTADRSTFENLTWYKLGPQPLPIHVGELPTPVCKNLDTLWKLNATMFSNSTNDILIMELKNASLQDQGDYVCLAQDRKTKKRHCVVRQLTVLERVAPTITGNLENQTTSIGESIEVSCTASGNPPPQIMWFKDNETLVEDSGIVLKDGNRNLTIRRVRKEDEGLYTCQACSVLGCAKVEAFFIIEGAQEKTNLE

VEGFR2 [2] = molecular target: T1, VEGFR2; experiment: Biacore
VEGFR2 [3] = molecular target: T1, VEGFR2; experiment: IC50 measurement, summary table; assay not stated
VEGFR2 on HUVECs [4] = molecular target: T2, VEGFR2 on HUVECs (human, UniProt P35968 20-1356); experiment: flow cytometry on HUVECs, MFI against antibody concentration, non-linear fit (Example 6); unit taken from the axis label 'Antibody Conc (M)', log scale
T2 construct: whole, on cells; also called VEGFR2 receptor in HUVECs; HUVE cells
Description: (§1) This example illustrates in vitro data for VK-B8 cellular EC₅₀ measurements. Protocol: 50,000 HUVECs were aliquoted into the wells of a 96-well, v-bottom plate in 100 ul FACS Buffer (PBS+2% FBS). A twelve point, 3× dilution curve of VK-B8 was made in FACS Buffer starting at 50 μg/ml (3.33×10⁻⁷ M). Cells were spun down, washed 1× with FACS Buffer, and then resuspended in 25 μl of antibody solution in triplicate. […] Cells were further incubated for 0.5 hr. and then washed 1× with FACS Buffer. Cells were resuspended in 25 μl FACS Buffer and the median fluorescence intensity in the FL2-H channel was determined using the Intellicyt HTFC flow cytometer.
(§2) Results: The cell binding EC₅₀ for VK-B8 on HUVECs was determined to be 1.3 nM. Data was analyzed and plotted in Graph Pad Prizm using non-linear regression fit. Data points are shown (FIG. 4) as the median fluorescence intensity (MFI) of positively labeled cells +/− Std Error.

soluble VEGFR2-Fc [5] = experiment: blocking of VEGF binding to soluble VEGFR2-Fc, VK-B8 titrated, readout OD 450; plate format not described; unit taken from the axis label 'VK-B8 [log M]'
VEGFR2 on HUVECs [6] = molecular target: T2, VEGFR2 on HUVECs; experiment: cell-based or functional assay
VEGFR2 on HUVECs [7] = molecular target: T2, VEGFR2 on HUVECs; experiment: cell binding to HUVE cells, flow cytometry (FIG. 3 legend); FIG. 3 legend, unrounded value
Description: as §1, §2

soluble VEGFR2-Fc [8] = experiment: blocking of VEGF binding to soluble VEGFR2-Fc (FIG. 2)

T2 sequence (P35968 20-1356): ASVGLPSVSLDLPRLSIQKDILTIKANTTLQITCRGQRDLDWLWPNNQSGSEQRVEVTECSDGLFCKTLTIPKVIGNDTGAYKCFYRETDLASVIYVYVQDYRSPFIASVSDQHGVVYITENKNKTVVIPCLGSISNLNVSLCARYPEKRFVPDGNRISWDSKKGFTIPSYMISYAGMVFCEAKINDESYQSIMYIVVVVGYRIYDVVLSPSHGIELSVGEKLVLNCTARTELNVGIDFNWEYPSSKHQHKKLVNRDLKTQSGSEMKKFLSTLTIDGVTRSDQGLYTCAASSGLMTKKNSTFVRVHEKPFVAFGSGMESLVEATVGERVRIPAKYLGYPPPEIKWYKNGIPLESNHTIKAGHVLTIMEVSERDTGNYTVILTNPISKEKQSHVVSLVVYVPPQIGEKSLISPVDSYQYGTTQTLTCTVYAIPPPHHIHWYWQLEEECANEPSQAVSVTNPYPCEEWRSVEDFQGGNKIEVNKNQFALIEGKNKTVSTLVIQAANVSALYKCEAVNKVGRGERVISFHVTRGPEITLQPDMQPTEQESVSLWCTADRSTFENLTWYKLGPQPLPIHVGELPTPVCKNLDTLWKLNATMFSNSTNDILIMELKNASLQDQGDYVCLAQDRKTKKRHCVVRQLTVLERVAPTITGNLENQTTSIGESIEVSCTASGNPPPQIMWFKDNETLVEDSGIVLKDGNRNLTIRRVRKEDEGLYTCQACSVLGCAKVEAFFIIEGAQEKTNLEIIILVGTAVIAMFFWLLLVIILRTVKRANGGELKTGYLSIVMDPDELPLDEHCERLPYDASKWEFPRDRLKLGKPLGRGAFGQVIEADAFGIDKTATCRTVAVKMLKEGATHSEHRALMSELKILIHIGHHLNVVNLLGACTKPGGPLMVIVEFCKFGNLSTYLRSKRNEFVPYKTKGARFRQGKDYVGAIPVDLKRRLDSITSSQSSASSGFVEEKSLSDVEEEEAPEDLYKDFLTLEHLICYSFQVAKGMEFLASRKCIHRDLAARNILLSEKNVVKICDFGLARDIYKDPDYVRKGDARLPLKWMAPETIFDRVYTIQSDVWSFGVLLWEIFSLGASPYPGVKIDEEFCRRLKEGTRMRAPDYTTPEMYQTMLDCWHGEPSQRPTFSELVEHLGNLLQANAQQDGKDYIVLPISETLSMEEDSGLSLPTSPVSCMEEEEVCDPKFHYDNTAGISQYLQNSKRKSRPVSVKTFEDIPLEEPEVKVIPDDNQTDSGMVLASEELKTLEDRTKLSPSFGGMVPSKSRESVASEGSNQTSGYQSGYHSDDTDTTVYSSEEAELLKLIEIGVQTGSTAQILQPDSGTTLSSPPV
Sequence of soluble VEGFR2-Fc (P35968 20-764): as the sequence (P35968 20-764) above

B1: VB-A9 (antibody, V domains shown)
VH: EVQLVESGGGLVKPGGSLRLSCAASGFTFSSYSMNWVRQAPGKGLEWVSSISSGSSYIYYADSLKGRFTISRDNAKNSLYLQMNSLRAEDTAVYYCARDFGNWGQGTLVTVSS
VL: QSALTQPRSVSASPGQSVTISCTGTSSDVGGYDYVSWYQQHPGKAPKLMIYEVSNRPSGVSNRFSGSKSGNTASLSISGLQAEDEADYYCSSYTSTSSPVVFGGGTKLTVL
EC50 (VEGFR2 [1]): 0.25 nM
Kd (VEGFR2 [2]): 3.02 nM
koff (VEGFR2 [2]): 0.000496 s⁻¹
kon (VEGFR2 [2]): 164000 M⁻¹ s⁻¹
IC50 (VEGFR2 [3]): 2.05 nM

B2: VB-E1 (antibody, V domains shown)
VH: QVQLVESGAEVKKPGASVKVSCKASGYTFTNYYIHWVRQAPGQGLEWMGIINPSSGSTNYAQKFQGRVTMTRDTSTSTVYMELSSLRSEDTAVYYCARQRWDLLDDAFDIWGQGTMVTVSS
VL: DIVMTQSPDSLAVSLGERATINCKTSQSVLYNANNKNYLNWYQQKPGQPPKLLIYWASARESGVPDRFSGSGSGTDFTLTIRSLQPDDFATYYCQQAISFPLTFGGGTKVEIK
EC50 (VEGFR2 [1]): 0.5 nM

B4: VK-B8 (antibody, V domains shown)
VH: QVQLVQSGAEVKKPGSSVKVSCKAYGGTFGSYGVSWVRRAPGQGLEWMGRLIPIFGTRDYAQKFQGRVTLTADESTNTAYMELSSLRSEDTAVYYCARDGDYYGSGSYYGMDVWGQGTLVTVSS
VL: ETTLTQSPATLSVSPGERATVSCRASQSLGSNLGWFQQKPGQAPRLLIYGASTRATGIPARFSGSGSGTEFTLTISSLQSEDFAVYFCQQYNDWPITFGQGTRLEIK
notes: The printed VH starts with MA; also called STI-A0168; anti-VEGFR2 antibody VK-B8
EC50 (VEGFR2 on HUVECs [4]): 1.3 nM
EC50 (VEGFR2 [1]): 0.25 nM
IC50 (soluble VEGFR2-Fc [5]): 0.771 nM
Kd (VEGFR2 [2]): 0.121 nM
koff (VEGFR2 [2]): 8.73e-05 s⁻¹
kon (VEGFR2 [2]): 724000 M⁻¹ s⁻¹
IC50 for VK-B8 inhibition of VEGF-induced p44/p42 MAPK (Erk1/2) phosphorylation in HUVECs, phospho-ELISA (VEGFR2 on HUVECs [6]): 0.08 nM
IC50 value for the inhibition of VEGF-induced HUVEC cell migration by VK-B8 (FIG. 14 legend) (VEGFR2 on HUVECs [6]): 0.53 nM
IC50 value for the inhibition of VEGF-induced HUVEC cell proliferation by VK-B8 (FIG. 13 legend) (VEGFR2 on HUVECs [6]): 14.9 nM
IC50 value for the inhibition of VEGF-induced HUVEC migration by VK-B8 (modified Boyden chamber) (VEGFR2 on HUVECs [6]): 0.5 nM
IC50 value for the inhibition of VEGF-induced HUVEC proliferation by VK-B8 (VEGFR2 on HUVECs [6]): 14 nM
EC50 (VEGFR2 on HUVECs [7]): ~1.3 nM
IC50 (soluble VEGFR2-Fc [8]): ~0.77 nM
IC50 (VEGFR2 [3]): 2.04 nM

B5: VR-B4 (antibody, V domains shown)
VH: B4 VH with L119T
VL: SYELTQPASVSGSPGQSITISCTGSSSDVGGYNFVSWYRQHAGKAPKLMIYDVTNRPSGVSTRFSGSKSGTTASLTISGLQPDDEAHYYCSSYTTTSTWVFGGGTKLTVL
EC50 (VEGFR2 [1]): 24.3 nM

B7: RV-H5 (antibody, V domains shown)
VH: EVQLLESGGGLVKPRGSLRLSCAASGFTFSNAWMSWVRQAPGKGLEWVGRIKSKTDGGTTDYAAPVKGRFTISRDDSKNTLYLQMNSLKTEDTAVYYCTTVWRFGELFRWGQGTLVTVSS
VL: QAGLTQPPSVSVSPGQTASITCSGDKLGDKYISWYQQKPGQSPVMVIFQDTKRPSGIPERFSGSNSGNTATLTISGTQAMDEADYYCQAWDTSTVFGGGTKLTVL
EC50 (VEGFR2 [1]): 0.323 nM
Kd (VEGFR2 [2]): 0.815 nM
koff (VEGFR2 [2]): 0.00225 s⁻¹
kon (VEGFR2 [2]): 2.76e+06 M⁻¹ s⁻¹
IC50 (VEGFR2 [3]): 5.79 nM

B8: VB-A3 (antibody, V domains shown)
VH: QVQLVQSGAEVKKPGASVKVSCKASGHTFNYYYMHWVRQAPGQGLEWMGQTNLNSGGTNYAPKFQGRVTMTRDTSISTAYMELSSLRSDDTAVYYCANLNSGWFHFENWGQGTLVTVSS
VL: SYELTQPPSVSVAPGKTASITCGGNNIGSKSVHWYQQKPGQAPVLVIYYDRDRPSGIPERFSGSNSGNTATLTISRVEAGDEADYYCQVWDSSSYHPVFGGGTKLTVL
Kd (VEGFR2 [2]): 3.09 nM
koff (VEGFR2 [2]): 0.012 s⁻¹
kon (VEGFR2 [2]): 3.88e+06 M⁻¹ s⁻¹

Further binders by falling EC50 (VEGFR2 [1]), results first:

EC50 (VEGFR2 [1]): 1.29 nM
IC50 (VEGFR2 [3]): 9.32 nM
B6: VR-E3 (antibody, V domains shown)
VH: EVQLVESGGGLVKPGGSLRLSCAASGFTFSSYSMNWVRQAPGKGLEWVSSISSASSYIYYADSVKGRFTISRDNAKKSLYLQLNSLTVEDTAVYYCAREYWGSPDYWGRGTLVTVSS
VL: QPVLTQPPSASGSPGQSVTISCTGTSSDVGGYNYVSWYQQHPGKAPKLMIYDVNNRPSGVPDRFSGSKSGNTASLTISGLQAEDEADYYCSSYTSSSTRVFGGGTKLTVL

EC50 (VEGFR2 [1]): 0.747 nM
B3: VR-B2 (antibody, V domains shown)
VH: EVQLLESGGGLVQPGGSLRLSCAASGFTFSSYAMHWVRQAPGKGLEWVAVISYDGSNKYYADSVKGRFTISRDNSKNTLYLQMNSLRAEDTAVYYCARDLGAASYWYFDLWGRGTLVTVSS
VL: DIQLTQSPPSVSASVGDRVTITCRASQDISTWLAWYQQKPGSAPKVLIYAASTFQSGVPSRFRGSGSGTYFTLTISGLQPEDFATYYCQQGNSFPPTFGQGTKLEIK
